Data: PMC8733390, “Transcription Factor CitERF16 Is Involved in Citrus Fruit Sucrose Accumulation by Activating CitSWEET11d”

Molecular target: T1, CitERF16 (Citrus, UniProt V4VLW3 1-243)
T1 sequence: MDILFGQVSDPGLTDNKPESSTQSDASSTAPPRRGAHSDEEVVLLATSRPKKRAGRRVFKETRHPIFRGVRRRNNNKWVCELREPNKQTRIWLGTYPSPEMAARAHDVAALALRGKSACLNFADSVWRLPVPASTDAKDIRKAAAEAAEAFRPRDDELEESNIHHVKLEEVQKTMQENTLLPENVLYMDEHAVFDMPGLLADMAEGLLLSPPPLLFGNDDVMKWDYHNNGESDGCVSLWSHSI
Experiment: EMSA; unlabelled same-sequence probe reduced binding; LightShift Chemiluminescent EMSA kit (Thermo), per manufacturer; buffer, salt, pH and temperature not stated
Conditions: protein: recombinant; tags: His (pET-32a vector fusion); label: 3'-biotin; blunt

B1: CitSWEET11d promoter probe (dsDNA)
DNA 1: AAACGATGTCGGTACTCGGTCCGCATGCAATCATACAAAACAACAAGAAT
DNA 2: ATTCTTGTTGTTTTGTATGATTGCATGCGGACCGAGTACCGACATCGTTT
binding result: binds
